1 substance from paper PMC8807876 can be followed below.

In this assay the target is TopBP1 (UniProt Q92547). The assay can be described thus: anti-GFP nanobody IP, TopBP1 immunoblot. The note with it: reference: wild type; sites T969,S1001.

“Treslin/TICRR (from UniProt Q7Z2Z1) 2PM (T969A/S1001A)”: the “binding against the reference” value was “lost”.
